Laboratory results as given in article doi:10.1101/2021.12.31.474618.

Molecular target: OsCBMIP-His (OsRMC-His), secreted from rice suspension-cultured cells (rice)
Assay: BLI

MoCel6A as used for binding kinetics (BLItz) (enzyme)
Kd: 21.9 nM
koff: 0.000845 s⁻¹
kon: 38900 M⁻¹ s⁻¹
